Laboratory results as given in article PMC5217673, “The Shigella Virulence Factor IcsA Relieves N-WASP Autoinhibition by Displacing the Verprolin Homology/Cofilin/Acidic (VCA) Domain*” (The Journal of Biological Chemistry, 2016).
No end group written: not given here.

B1: GST-N-WASP WH1 + GBD (residues 30–274) (domain or fragment)
chain: LFTFLGKKCVTMSSAVVQLYAADRNCMWSKKCSGVACLVKDNPQRSYFLRIFDIKDGKLLWEQELYNNFVYNSPRGYFHTFAGDTCQVALNFANEEEAKKFRKAVTDLLGRRQRKSEKRRDPPNGPNLPMATVDIKNPEITTNRFYGPQVNNISHTKEKKKGKAKKKRLTKADIGTPSNFQHIGHVGWDPNTGFDLNNLDPELKNLFDMCGISEAQLKDRETSKVIYDFIEKTGGVEAVKNELRR
notes: N-WASP from the WH1 domain to the end of the GBD, residues 30-274; also called GST-WH1 + GBD; extended N-WASP construct; source: E. coli Rosetta(DE3), purified (glutathione-Sepharose, SEC)
B2: GST-N-WASP extended GBD (residues 156–274) (domain or fragment)
chain: NLPMATVDIKNPEITTNRFYGPQVNNISHTKEKKKGKAKKKRLTKADIGTPSNFQHIGHVGWDPNTGFDLNNLDPELKNLFDMCGISEAQLKDRETSKVIYDFIEKTGGVEAVKNELRR
notes: Cloned in pGEX-6P-1 or pGEX-4T-2; also called GST-GBD; GBD alone; source: E. coli Rosetta(DE3), purified (glutathione-Sepharose, SEC)

Assays:
Conditions in all cases: both partners purified
[1] = biological target: T1, IcsA passenger domain, IcsA(53–758), FLAG-tagged (Shigella flexneri, UniProt Q7BCK4 53-758); experiment: fluorescence polarisation; competition: preformed complex of GST-GBD or GST-WH1 + GBD (5 μM) and fluorescein-VCA peptide (0.1 nM), IcsA added at 0.01–16 μM, 25 °C; one-site equilibrium model
T1 construct: IcsA (VirG) of Shigella flexneri, gene amplified from the virulence plasmid pWR100; Expressed as full-length IcsA from pETDuet-2 with IcsP; monomer by SEC-MALS; also called FLAG-IcsA; VirG; source: E. coli C43 (DE3), full-length IcsA co-expressed with IcsP; secreted passenger domain purified from medium (anti-FLAG M2 beads, SEC); not shown: FLAG, N-terminal, kept
T1 sequence: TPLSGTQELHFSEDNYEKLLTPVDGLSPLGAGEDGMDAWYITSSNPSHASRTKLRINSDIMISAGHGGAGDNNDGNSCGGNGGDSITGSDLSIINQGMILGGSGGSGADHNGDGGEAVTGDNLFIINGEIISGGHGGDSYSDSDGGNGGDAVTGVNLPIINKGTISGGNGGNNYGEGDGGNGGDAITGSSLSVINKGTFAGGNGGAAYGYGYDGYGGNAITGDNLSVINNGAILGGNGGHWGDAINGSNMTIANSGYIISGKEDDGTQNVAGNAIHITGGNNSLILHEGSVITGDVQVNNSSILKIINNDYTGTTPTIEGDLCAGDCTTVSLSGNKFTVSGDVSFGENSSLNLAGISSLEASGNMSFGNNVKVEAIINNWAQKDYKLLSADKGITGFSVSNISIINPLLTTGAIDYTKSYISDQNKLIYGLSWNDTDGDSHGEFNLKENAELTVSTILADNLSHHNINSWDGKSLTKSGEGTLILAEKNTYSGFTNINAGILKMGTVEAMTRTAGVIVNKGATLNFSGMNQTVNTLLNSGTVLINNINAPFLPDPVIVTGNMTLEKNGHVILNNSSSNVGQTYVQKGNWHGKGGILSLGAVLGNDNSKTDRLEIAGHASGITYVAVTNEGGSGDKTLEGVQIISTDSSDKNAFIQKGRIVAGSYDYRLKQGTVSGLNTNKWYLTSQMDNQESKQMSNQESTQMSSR

[2] = biological target: B1; experiment: fluorescence polarisation; direct binding: fluorescein-VCA peptide 2 nM, GST-GBD or GST-WH1 + GBD 0.1–200 μM, 25 °C, TBS, 1 mM DTT; one-site equilibrium model
[3] = biological target: B2; experiment: as above

Row | Binder | Kd [1] [µM] | Kd [2] [µM] | Kd [3] [µM]
1 | B1 | 0.05 | – | –
2 | B2 | 0.32 | – | –
3 | fluorescein-APTSGIVGALMEVMQKRSKA (also called labeled peptide; source: synthetic peptide (Genscript)) [Fluorescein-labelled N-WASP VCA peptide (residues 462–481)] | – | 52.4 | 28.8
